Values quoted from earlier work in publication PMC5193440.

Key:
[1] = test system: Cys; details: not stated
[2] = target: Cys30 (UniProt position 49, FFSFFCPHCYQ); details: reduced active site (dithiol form)

Substance | pKa [1] | pKa [2]
DsbA1 (NmDsbA1) (Neisseria meningitidis) | 3.0 | 
DsbA1 (WpDsbA1, alpha-DsbA1), wild type (Wolbachia pipientis) | 4.7 ± 0.08 | 
DsbA (KpDsbA) (Klebsiella pneumoniae) | 3.2 | 
DsbA (MtbDsbA, Rv2969c) (Mycobacterium tuberculosis) | 4.2 ± 0.2 | 
DsbA (SaDsbA) (Staphylococcus aureus) | 3.4 ± 0.07 | 
DsbA (SeDsbA) (Salmonella enterica (inferred from the abbreviation; the article only calls it an enterobacterial DsbA)) | 3.3 ± 0.06 | 
DsbA (VcDsbA, TcpG) (Vibrio cholerae) | 5.1 | 
DsbA (thiol:disulfide interchange protein, EcDsbA) (Escherichia coli) |  | 3.3 ± 0.09
